Data taken from the DeepSol protein solubility set.

Assay: soluble on expression in E. coli; label from the status in PepcDB or PDB records

## MGHHHHHHSHMFWRNPLPNIDHELQELLIDRGEDVPSEEEEEEENGFEDRKDDSDDDGGGWITPSNIKQIQQELEQCDVPEDVRVGCLTTDFAMQNVLLQMGLHVLAVNGMLIREARSYILRCHGCFKTTSDMSRVFCSHCGNKTLKKVSVTVSDDGTLHMHFSRNPKVLNPRGLRYSLPTPKGGKYAINPHLTEDQRFPQLRLSQKARQKTNVFAPDYIAGVSPFVENDISSRSATLQVRDSTLGAGRRRLNPNASRKKFVKKR
  soluble on expression in E. coli: not soluble

## MTLHLPGADGTLRAYEPRTEPLPTLRATSGSAFSSRTVFSAAHVVADPYADTTPDGPAAVDWDATLAFRRHLWSHGLGVAEAMDTAQRGMGLDWPTAAELIRRSAAEARATGGRIACGVGTDQLTATAATLADVRSAYEEQLAVVEESGAQAILMASRALAATAKGPDDYLEVYGHLLRQAAEPVILHWLGPMFDPALEGYWGSSDLDAATDTFLEVIAAHPDKVDGIKVSLLDAQREIDLRRRLPRGVRCYTGDDFNYPELIAGDEQGFSHALLGIFDPLGPLAAEAVRVLDTGDTDGFRALLDPTVELSRHLFRAPTRYYKTGVVFLAWLAGHQSHFTMVGGLQSARSLPHLARAYELADGLGLFPDPKPAEERMRNLLALYGVN
  soluble on expression in E. coli: not soluble

## MSLQLEYPLTNHMKRNMVLTKENQVIAYYRIRSETVGLTDFEKKRKTKKKVARTLKRLQENEGFEIVLLPVNADIRGKMGGMRQLVDKENHSVAVDKLMKTAQYLENEIGMVYEYIWLIGVPLVKKERSIDIKETFSTALNNLSEKVVKGLGLEVGVAEDWEEAYKDQEQEVYQNLSELLVERLTEDELYYYQAYQFLNNIQHEKKELLTSQNLDNLLANKITPFRGGLELSNEFGKSYIAHLPLGDCGVTIDGNHLLELVQKMSYPVSVKLQAGFAETKGQLALSGRSARARTRTKNIMEEAHLAGSKQKRKIVEGQHSLDDLDQKIDDDIPIIDWKAVLVISGNSKKQLRERKKNLMNRLDSLGIPLIRATFDNVYLFQATLLGNFQRFSTSNWQHTSTLETFSELNFFTSLHAGTKTGFYLGRVDATLEEKESRKQIVSGSKNIVYMNLLLANKQNIEGKKTNNPHWLVSGDTGNGKSVFSKWLFLYSSLLDVKVLYIDPKKEVRQQFMRTINDPEYQRKYPLDVAFIKTFNFVTLDVRKKENHGVLDPIVLFDETEAIATAKAMLNNINEDKWKMPHKTAINETVAEVVAERKAGKQVGFWHVIERLISHSEKDVHEMGRFLLSTIKGSILELAFSHGEVEGLSFEKKVTILEIEDLDLPTDRHDELDENQRLSVTLMFALGTFCSKFGSRNRKEETVTFFDEAWIFQSSPEGQKILKSMKRIGRSFNNFMVLITQSVNDVLDNGDGTGFGTVVCFDEVDNREGILRYLKLPVNEINLKWVSNMIQGQCLMKDMFNQVNRIVIDVIFEEWLELFETVDEGHHHHHH
  soluble on expression in E. coli: soluble

## MSLEEINKIEVIEKSIEENTEKYEIKVKYPSIQGGEKEVTDKINKTIEDYTLNWINDIKLLGEEYSKEYEKAGKEMPKMEAYSLFEAFNTDEVISLPVSYYQYTGGAHGLTTKVSYNYNLKTGKELKLKDLFKEGFDYKSIIDKKVRGDIEKEKELYFDNGALFKGVNENQAYYLNRDGIIVYFQQYEIAPYSSGIREFKIPYGELKEGLIYKLGNEGHHHHHH
  soluble on expression in E. coli: soluble

## MTYSIVAISGSPSRNSTTAKLAEYALAHVLARSDSQGRHIHVIDLDPKALLRGDLSNAKLKEAVDATCNADGLIVATPIYKASYTGLLKAFLDILPQFALAGKAALPLATGGSPAHVLALDYGLRPVLHSMGVRHVVQSFFLVQSQFSVVDGKLAVEDDVASQLNNAIDHFRLSLSSEPSTRHLGHPRPSLDATRAA
  soluble on expression in E. coli: soluble

## QPEDLAYVIFTSGSTGQPKGVAIEHRAARTTIDDINQRFEITDTDVVLGLSALSFDLSVWDIFGGLGAGATVVLPEEDRLRDPSYWLDLCDRHEITVWNSAPPLLEMLVDYAEIDPEAAAHALRNLRMVMLSGDWIPVTLPRRLKELAPNATVMSLGGATEASIWSICHRTSDADEHGPS
  soluble on expression in E. coli: not soluble

## SSRIGEIKEETTSHLRSCEYKGRPPKAGAEPASEREVS
  soluble on expression in E. coli: soluble

## MGSDKIHHHHHHMATDASGGVGEKAKDHVHVPYEVVSYYAARVALLECMSVGATPFTFLVQNFSGDEPYQKMIDGINRALGEANQAQATIAGSTESNMVLEQSCLGVTVIGRVHQSALKIGITPKDAGIALLGKPLVGEEVVSQEKDVFPLKQFDELLQEEGVYEIIPVGSKGVKYELEVLAATNEWNTLQVPVNGNVDLTKSSGPATSLLITFDGTMEALLKAKYSSWWTTLASKIST
  soluble on expression in E. coli: not soluble
